Measured values from patent US11939377B2, “Affinity matured CD22-specific monoclonal antibody and uses thereof” (The U.S.A., as represented by the Secretary, Department of …, priority 2018, dated 2024).
Blank lines part the entries; values can stand above or below the molecule they belong to.

Assays:
[1] = test system: CD22 expression on ALL and DLBCL cell lines (Nalm6, Kopn8, SEM, Pfeiffer, Toledo, PDX); test: CD22 expression on leukemia/lymphoma cells by flow cytometry after drug exposure in vitro; format: cell-based, human; conditions: Enzastaurin 10 μM, Staurosporine 100 μM, 24 hours
Protocol: FIGS. 3A-3D: (FIG. 3A) Four cell lines (Nalm6, Kopn8, Pfieffer and Toldeo) were co-incubated with 1 ng/ml Bryostatin 1 for 24 hours and analyzed using flow cytometry one day after Bryostatin 1 exposure. Site density was analyzed using standardized Quantibrite-PE beads. (FIG. 3B) Cell lines were co-incubated with 1 ng/ml Bryostatin 1 for 24 hours, washed, and analyzed using flow cytometry at 1 and 7 days after Bryostatin 1 exposure. Fold change was calculated based on site density: (Cell line Bryostatin 1—Cell line DMSO)/Cell line DMSO. (FIG. 3C) NSG mice were injected with 1×10^6 GPF-positive Nalm6 leukemia cells on Day 0. Bryostatin 1 was administered at 0.8 μg/kg on Day 3. Mice were sacrificed 7 and 12 days after Bryostatin 1 injection and CD22 was evaluated by flow cytometry. (FIG. 3D) CD22-low relapse PDX cell line was cultured in vitro with 1 nmol/L Bryostatin 1 for 24 hours and measured for CD22 expression using CD22 antibody.
FIGS. 10A-10E: (FIG. 10A) Three cell lines (Toldeo, Kopn8 and Nalm6) were co-incubated with Bryostatin 1 at varying concentrations for 24 hours. At 24 hours, cells were collected for protein kinase C (PKC)-βII isoform analysis by western blot. (FIG. 10B) KOPN8 or SEM cell lines were exposed to Bryostatin 1 for 16, 24, 48 or 72 hours. RNA was extracted from cells and analyzed using RNAseq. (FIG. 10C) Immunofluorescent staining of CD22 was conducted through permeabilization followed by staining of CD22. (FIG. 10D) Four cell lines were co-incubated with various combinations of Enzastaurin (10 μM), Staurosporine (100 μM), or Bryostatin 1 (1 nM) for 24 hours. CD22 expression was assessed using flow cytometry. MFI fold change=CD22 MFI^Bryostatin1/CD22 MFI^DMSO. (FIG. 10E) Cell lines were co-incubated with 1 nM Bryostatin 1 for 24 hours and measured for CD22 expression using CD22-PE antibody. MFI fold change=CD22 MFI^Bryostatin 1/CD22 MFI^DMSO.
FIG. 11: CD22^lo or parental Nalm6 cell lines were exposed to 1 ng/ml Bryostatin 1 for 24 hours. CD22 expression was assessed using flow cytometry.
For all in vitro experiments and tumor/CAR pretreatment prior to intravenous injection, Bryostatin 1 was administered to cells at a concentration of 1 ng/mL. Dimethyl sulfoxide (DMSO) vehicle control was administered to control-treated cells at an equal volume. Prior to co-culture or intravenous injection, Bryostatin 1- and DMSO-treated cells were washed 3x in sterile PBS. For all in vivo experiments, Bryostatin 1 was diluted in PBS and administered via intraperitoneal injection at a dose of 40 μg/kg (1 μg/25 g mouse). For control-treated groups, an equal volume of DMSO was diluted in PBS and administered in the same manner
FACS analysis of cell surface CAR and protein expression was performed using an LSR II Fortessa flow cytometer (BD Biosciences). CD22-CAR was detected by incubation with 22-Fc (R&D Systems), followed by incubation with human IgG-specific PE-F(ab)2 (Thermo Fisher Scientific). The following human monoclonal antibodies were used for detection of cell surface proteins: CD22-APC, CD22-PE, CD19-Pacific Blue, CD45-PerCP/Cy5.5, CD3-APC/Cy7, PD1-PE/Cy7, LAG3-APC, TIM3-Pacific Blue, CD8-APC, CD8-PE/Cy7, CD45RA-APC, CD45RO-PE/Cy7, CCR7-Pacific Blue, CD4-Pacific Blue, CD69-APC (all from BioLegend). CD22 site density was determined using QuantiBrite-PE beads (BD Biosciences) using methods previously described (Jasper et al., Cytometry B Clin Cytom 80(2):83-90, 2011). Dead cells were identified using eFluor 506 fixable viability dye (Thermo Fisher Scientific). GFP-expressing leukemia cells were identified through the FITC channel.

[2] = target: CD22 extracellular domain (ECD) (Homo sapiens, UniProt P20273); test: BIAcore surface plasmon resonance of scFv binding to immobilized CD22 ECD-Fc
Protocol: FIGS. 13A-13F: (FIG. 13A) BIAcore analysis was used to evaluate association and dissociation curves of various scFvs. […] (FIG. 13B) CD22^V1 or CD22 CART were co-cultured with CD22^neg or CD22^lo leukemia and evaluated at 24 hours for PD1 expression through flow cytometry on a Fortessa flow machine. (FIGS. 13C-13F) Mice were injected with CD22^lo or Nalm6 leukemia on Day 0. […] Bone marrow cells were stained for flow cytometry and analyzed on Fortessa flow machine. Statistics were calculated using unpaired t-test (** p<0.0021).
Purified CD22 ECD-Fc fusion protein was diluted in 10 mM acetic acid buffer, pH 5.0, immobilized on a CMS biosensor chip for 1400 RU using an amine coupling kit. The running buffer was HBS-EP (10 mM HEPES, pH 7.4, 150 mM NaCl, 3 mM EDTA, 0.05% surfactant P20). The scFvs diluted in running buffer were allowed to flow through the cells at concentrations 0.32, 1.6, 8, 40 and 200 nM. After a 10-minute of dissociation, the chip was regenerated with 10 mM acetic acid, pH 4.0, 0.5 M NaCl. The data were fitted with 1:1 binding model and the dissociation rate constant was estimated with the BIAevaluation software.

Molecule: Cn1cc(C2=C(c3cn(C4CCN(Cc5ccccn5)CC4)c4ccccc34)C(=O)NC2=O)c2ccccc21 [Enzastaurin]
upregulation of CD22 [1]: neither the PKCβII inhibitor, Enzastaurin, nor a broad PKC inhibitor, Staurosporine, was able to upregulate CD22

Molecule: CN[C@@H]1C[C@H]2O[C@@](C)([C@@H]1OC)n1c3ccccc3c3c4c(c5c6ccccc6n2c5c31)C(=O)NC4 [Staurosporine]
upregulation of CD22 [1]: neither the PKCβII inhibitor, Enzastaurin, nor a broad PKC inhibitor, Staurosporine, was able to upregulate CD22

affinity relative to original scFv m971 ([2]; as measured by BIAcore): more than 1000 fold
Kd ([2]; scFv, bound from instrument limit kd): < 0.018 nM
Kd ([2]; scFv, bound from instrument limit kd 1.0×10^−5 / 5.6×10^5): < 0.018 nM
calculated dissociation rate constant kd ([2]; scFv, lower than the kd measurable by BIAcore X-100 (1.0×10^−5 l/s)): 1.1e-06 L/s
B1: m971-L7: affinity matured human monoclonal antibody specific for CD22; VH SEQ ID NO: 4, VL SEQ ID NO: 5, scFv SEQ ID NO: 6 (antibody, V domains shown)
VH: QVQLQQSGPGMVKPSQTLSLTCAISGDSVSSNSVAWNWIRQSPSRGLEWLGRTYYRSTWYNDYAVSMKSRITINPDTNKNQFSLQLNSVTPEDTAVYYCAREVTGDLEDAFDIWGQGTMVTVSS
VL: DIQMIQSPSSLSASVGDRVTITCRASQTIWSYLNWYRQRPGEAPNLLIYAASSLQSGVPSRFSGRGSGTDFTLTISSLQAEDFATYYCQQSYSIPQTFGQGTKLEIK
